This assay deals with soluble CD28-Ig Fc fusion protein (extracellular domain of human CD28 and Fc portion of human IgG1; R&D Systems) (human), P10747. Description: competitive FACS on transfected 293 cells; competitor sCTLA-4-Ig; score 0/1/2 = CD28/CTLA-4 binding ratio like / greater / significantly greater than WT hB7-1.

B1: Round 2 CD28A4-9 (ligand)
chain: ITPKSVTKRVKETVMLSCDYNTSTEKLTSLRIYWQKDSKMVLAILPGKVQVWPEYKNRTITDMNDNPRIVILALRLSDSGTYTCVIQKPVLKGAYKLEHLTSVRLMIRADFPVPTINDLGNPSPNIRRLICSTSGGFPRPHLYWLENGEELNATNTTVSQDPETKLYMISSELDFNVTNNHSIVCLIKYGELSVSQIFPWSKPKQEPPIDQLPFWVIIPVSGALVLTAVVLYCPACRHVARWKRTRRNEETVGTERLSPIYLGSAQSRAEVPSLSX
modifications: not fully specified; X: residue not identified in the source; ends and bridges not checked
As for B1, the Binding Score was found to be 1.

B2: Round 2 CD28A12-5 (ligand)
chain: ITPKSVTKRVKETVMLSCDYNTSTEELTSLRIYWRKDSKMXLAILPGKVQVWPEYKNRTITDMNDNLRIVILALRLSDSGTYTCVIQKPDLKGAYKLEHLTSVRLMIRADFPVPTINDLGNPSPNIRRLICSTSGGFPRPHLYWLENGEELNATNTTVSQDPGTELYMISSELDFNVTNNHSIVCLIKYGELLVSQIFPWSKPKQEPPIDQLPFWVIIPVSGALVLTAVVLYCLACRHVARWKRTRRNEETVGTERLSPIYLGSAQSSG
modifications: not fully specified; X: residue not identified in the source; ends and bridges not checked; also: glycosylated membrane protein, sites not given here
On to B2, for which the Binding Score stood at 1.

For the origin of these results see patent US7183376.
